Measured values taken from PMC8965865.
Where a chain is given by its changes, count along the chain named.

Legend:
[1] = target: T1, Fur (Mycobacterium smegmatis mc2155) (UniProt A0QXX6); experiment: EMSA; conditions: 20 mM Tris HCl pH 8.0, 1 mM DTT, 50 mM KCl, 5 mM MgCl2, 20 ul, 30 min at 30 C
T1 sequence: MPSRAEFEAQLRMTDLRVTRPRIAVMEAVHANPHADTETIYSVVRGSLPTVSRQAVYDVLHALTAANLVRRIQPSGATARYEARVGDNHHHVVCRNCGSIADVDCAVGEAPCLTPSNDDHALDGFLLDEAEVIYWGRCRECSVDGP

[2] = target: T2, mFur (A28V Fur) A28V (Mycobacterium smegmatis mc251) (UniProt A0QXX6); experiment: EMSA; conditions: 20 mM Tris HCl pH 8.0, 1 mM DTT, 50 mM KCl, 5 mM MgCl2, 20 ul, 30 min at 30 C
T2 sequence: T1 sequence with A28V

Which binding [1] does the source give for “CATCCGCAGTTGGGCTTCGAACTCCGCCCGAGAGGGCATGCCGCCCACCTTGCTCGCCCGATTGGACGCAGTCAAGTCTTTCTCGAATTCGGTATGTCGGTGCATGTCTCGCTCCGATCTGGGAGCTCGGATGGGAGGCGCAAGAGCGAGCCGCGTTCGGCCATTGTCGGCCGACCGCTTCTGCGCGCAGGCTTGCTGCGGCGGTTACCCCGATGTGCCCGACGCTATACCTCCAGCCGAAGAAATTTCTTGCAATGGTTGTTTTCCAACG (double strand) [fur promoter DNA fragment]” here?
The binding was “binds”.

And the binding [2]?
Its binding is “binds more weakly”.
